Experimental data taken from paper PMC7383310.
“And” between values parts separate entries of the source, which are not always exact repeats. Identical values can stand only once.

Molecular target: recombinant human galectin-3 protein (human) (UniProt P17931)
Assay: AlphaScreen or HTRF; indirect AlphaLISA saturation binding; His-tagged tau K18 (0-100 nM, analyte) on anti-His donor beads, untagged GAL-3 (1, 3 and 10 nM) captured by anti-GAL-3 antibody and anti-rabbit IgG acceptor beads; proteins incubated 60 min at 4°C, beads 60 min at RT in the dark; assay buffer in DPBS; Kd = concentration at 50% saturation

Sequence of UniProt P17931 (P17931 whole entry): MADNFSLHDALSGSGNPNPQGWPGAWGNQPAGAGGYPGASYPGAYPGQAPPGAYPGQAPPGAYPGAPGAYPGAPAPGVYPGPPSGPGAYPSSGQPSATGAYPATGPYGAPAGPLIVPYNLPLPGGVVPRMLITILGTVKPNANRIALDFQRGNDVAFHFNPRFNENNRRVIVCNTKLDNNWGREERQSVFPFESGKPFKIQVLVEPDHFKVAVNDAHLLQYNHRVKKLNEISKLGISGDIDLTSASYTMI

Kd: 8.31 nM and 8.73 nM and 9.13 nM
Substance: His-tagged human tau K18 fragment (domain or fragment)
